Target: HSF1 (Homo sapiens, UniProt Q00613 1-529)
Assay: EMSA

HSF1, sequence (Q00613 whole entry): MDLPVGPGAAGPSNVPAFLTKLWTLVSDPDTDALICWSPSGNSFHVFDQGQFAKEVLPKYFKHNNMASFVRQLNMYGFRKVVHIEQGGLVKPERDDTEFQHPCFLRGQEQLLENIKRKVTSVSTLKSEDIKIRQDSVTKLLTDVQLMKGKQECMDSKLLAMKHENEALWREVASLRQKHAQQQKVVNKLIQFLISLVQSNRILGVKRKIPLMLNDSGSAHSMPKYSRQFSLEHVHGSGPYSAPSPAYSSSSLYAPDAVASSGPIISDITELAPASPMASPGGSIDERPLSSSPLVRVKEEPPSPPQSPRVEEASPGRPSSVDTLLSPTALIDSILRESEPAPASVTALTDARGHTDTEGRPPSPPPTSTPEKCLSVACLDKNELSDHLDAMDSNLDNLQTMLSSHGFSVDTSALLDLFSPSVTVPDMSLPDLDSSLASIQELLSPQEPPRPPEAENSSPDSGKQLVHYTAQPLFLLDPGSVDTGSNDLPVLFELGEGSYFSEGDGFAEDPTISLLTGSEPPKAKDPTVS

B1: HSE probe (dsDNA)
DNA 1: TCGGCTGGAATATTCCCGACCTGGCAGCCGA
DNA 2: TCGGCTGCCAGGTCGGGAATATTCCAGCCGA
binding result: binds

From PMC2173303
